According to publication PMC12809092 (2025):

How the values were obtained:
[1] = biological target: PLXNA1-ECD, recombinant human plexinA1 full extracellular domains (human, UniProt Q9UIW2 27-1244); assay: BLI
[2] = biological target: T1, PLXNA1-LBD, recombinant human plexinA1 ligand-binding domains (human, UniProt Q9UIW2 27-710); assay: BLI
T1 chain: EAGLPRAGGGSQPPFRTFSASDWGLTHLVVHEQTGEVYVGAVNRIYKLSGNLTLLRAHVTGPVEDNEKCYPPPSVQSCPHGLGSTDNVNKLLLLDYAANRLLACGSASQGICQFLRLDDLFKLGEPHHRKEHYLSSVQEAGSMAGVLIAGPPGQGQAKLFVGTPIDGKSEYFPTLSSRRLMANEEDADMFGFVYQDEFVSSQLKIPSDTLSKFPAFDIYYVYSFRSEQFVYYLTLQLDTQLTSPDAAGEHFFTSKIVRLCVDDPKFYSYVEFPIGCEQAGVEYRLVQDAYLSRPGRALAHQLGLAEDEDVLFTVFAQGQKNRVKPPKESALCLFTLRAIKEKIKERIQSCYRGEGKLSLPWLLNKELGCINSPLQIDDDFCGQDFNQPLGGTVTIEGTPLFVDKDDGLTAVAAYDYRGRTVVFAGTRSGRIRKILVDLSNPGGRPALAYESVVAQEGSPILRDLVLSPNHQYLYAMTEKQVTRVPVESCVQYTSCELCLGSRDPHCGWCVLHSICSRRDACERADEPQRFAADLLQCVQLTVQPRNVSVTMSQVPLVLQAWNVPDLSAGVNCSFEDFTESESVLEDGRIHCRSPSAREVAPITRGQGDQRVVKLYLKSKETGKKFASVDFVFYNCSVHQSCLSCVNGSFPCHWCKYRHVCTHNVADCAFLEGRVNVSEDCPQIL

koff [1]: 0.000111 s⁻¹
koff [2]: 0.000252 s⁻¹
B1: aPLXNA1-19-43 Fab (Fab, V domains shown)
VH: EVQLQQSGPELVKPGASVKISCKASGYKFTENYMDWVKQSHGESLEWIGDISPDNGDTSYNQKFRDKATLTVDKSSSTAYMELRSLTSEDSAVYYCAQIIYYDYVGYALDYWGQGTSVTVSS
VL: QIVLTQSPAILSASPGEKVTMSCSVSSSITYMHWYQQKPGTSPKRWIYDTSKLASGVPARFSGSGSGTSFSLTISNMEAEDAATYYCHQRSSYPYSFGGGTKLEIK
